Laboratory results published in the nanobody polyreactivity screen of Harvey et al. (2022).

Experiment: yeast display, Sf9 membrane polyspecificity reagent, FACS + sequencing; frameworks hold sequencing errors
How it was run: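 Nanobodies from a synthetic yeast display library (Saccharomyces cerevisiae BJ5465), induced 36–48 hours with galactose, were stained 1 hour at 4 °C with 10% biotinylated, detergent-solubilized Sf9 membrane reagent, enriched on streptavidin microbeads, then FACS-sorted. Anti-HA (expression) and streptavidin (reagent binding) fluorescence set low and high (top ~1%) gates. Polyreactivity labels come from the gate of origin. Genes were colony-PCR amplified, MiSeq 2 × 250 sequenced and filtered by CDR length.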

Row | Sequence | polyreactivity (PSR sort gate)
1 | QVQLVESGGGLVQAGGSLRLSCAASGRTFQSYAMGWYRQEPGKERELVAAITITGGRTYYADSVKGRFTISRDNAKNTVYLQMNSLKPEDTAVYYCAAEEYSHYTLGYVYWGQGTQVTVSS | low polyreactivity
2 | QVQLVESGGGLVQAGGSLRLSCAASGSIFFPYAMGWYRQAPGKERELVAAISQSAGSTFYADSVKGRFTISRDNAKHTVYLQKNSLKPEDTAVYYCAKSGDADFYYTYYYWGQGTQVTVSS | low polyreactivity
3 | QVQLVESGGGLVQAGGSLRLSCAASGFTFYIYAMGWYRQAPGKERELVAAISSGGGRTYYADSVKVRFTISRDNAKNTVYLQMTSLKPEDTAVYYCAARGRAFSYKNYGSDYWGQVTQVTVSS | high polyreactivity
4 | QVQLVESGGGLVQAGGSLRLSCAASGFTFDSYAMGWYRQAPGKERELVAAISYRGGTTYYADSVKGRFTISRDNAKNTVYLQMNSLKPEDTAVYYCATPYKYVTGEDYWGQGTQVTVSS | high polyreactivity
5 | QVQLVESGGGLVQAGGSLRLSCAASGYILRPYSKVWYRQSPGKERELLASISRSSGNTFYADSVKGRFTISRDNAKNSVYLEMNSLKPDDSAVYYCAKDRSQRDLVYFPRVIYRMDYWGQGTQVNVSS | high polyreactivity
6 | QVQLVESGGGLVQAGGSLRLSCAASGSTFRYYTMGWYRQAPGKERELVADITIGGSTYYADSVKGRFTISRDNSKNSVYLQMYSLKPEDTAVYYCAARSTGGRIFATGVAYAYWGQGTQVTVSS | low polyreactivity
7 | QVQLVESGGGLVQAGGSLRLSCAASGSTFVANAMGWYRQAPGKERELVAAIDYDDGGTYYADSVKGRFTISRDNAKNTVYLQMNSLKPEDTAVYYCAADYGDIGAVLHYPVELGYWGQGTQVTVSS | low polyreactivity
8 | QVQLVESGGGLVQAGGSLRLSCAASGFIFSYYVMGWYRQAPGKERELVAGISKRGGSTRYADSVKGRFTISRDNAKNTVYLQMNSLKPEDTAVYYCNRLPYLHFAGRLTNYDYWGQGTQVTVSS | high polyreactivity
9 | QVQLVESGGGLVQAGGSLRLSCAASGSTLRWYTMGWYRQAPGKESELVATNSRGGTTNYADSVKGRFTISRDNAKNTVYLQMNSLKPEDTAVYYCASRDFWWSRRIFGYWGQGTHVTVSS | high polyreactivity
10 | QVQLVESGGGLVQAGGSLRLSCAASGFIFWQYTMAWYRQAPGKERELVAAISFSGGRTYYADSVKGRFTISRDNAKNTVYLQMNSLKPEDTAVYYCAASAVPRQKGFYYWGQGTQVTVSS | high polyreactivity
11 | QVQLVESGGGLVQAGGSLRLSCAASGRTFRDNAMGWYRQAPGKERELVAVITVDSSSTYYADSVKGRFTISRDNAKNTVYLQMNSLKPEDTAVYYCAAELYYFWFDYWGQGTQVTVSS | low polyreactivity
12 | QVQLVESGGGLVQAGGSLPLSCAASGRIFNYYAMGWYRQAPGKERDFVATISTSGGSTYYADSVKARFTISRDNAKNTVYLQMISLKPEDTAVYYCAARRYYSLRTFLYWFSKYDYWGQGTQVTVSS | high polyreactivity
13 | QVQLVESGGGLVQAGGSLRLSCAASGSIFQYNAMGWYRQAPGKERELVADITSAGRTYYADSVKGRFTISRDNAKNTVYLQMNSLKPEDTAVYYCNKDYHYHFSWYGYWGQGTQVTVSS | low polyreactivity
14 | QVQHVESGGGLVQAGGSLRLSCAASGSIFRYYAMGWYRQAPGKERELVAASTSGGSTSYADSVKGRFTISRDNAKNTVYLQMNSLKPEDTAVYYCAKRSRHNKYYYWGQGTQVTVSS | high polyreactivity
15 | QVQLVESGGGLVQAGGSLRLSCAASGRTFYNNAMGWYRQAPGKERELVAAISQRTGRTYYADSVKGRFTISRDNAKNTVYLQMNSLKPEDTAVYYCNKVAYYSRRMDYWGQGTQVTVSS | high polyreactivity
16 | QVQLLESWGGLVHAGGSVRLSCAASGSIFGYNAMGWYRESPGKEREWVAAISWDGGSTYYADSVKGRFTISRDNAKYNVFLQMNSLKPEDTAVYYCAAEGLRFVYEYWGQGTQVTVSS | low polyreactivity

Row | Sequence | polyreactivity (PSR sort gate)
17 | QVQLVESGGGLVQAGGSLRLSCDASGSIFGINVMGWYRQAPGTERELVARINDGADTNYADSVKGRFTISRDNAKNTVYLQMNSLKPEDTAVYYCAKPYYDGRTHFDSWGQGTQVTVSS | low polyreactivity
18 | QVQLVESGGGLVQAGGSLRLSCAASGRTFKYYAMGWYSQAPGKERELVAAITRSGVSTSYADSVKGRFTISRDNAKNTVYLQMNSLKPEDTAVYYCNVYGYTYYTRGVGYWGQGTQVTVSS | high polyreactivity
19 | QVQLVESGGGLVQAGGSLRLSCAASGRIFRYYAMGWYRQAPGKERELVAAITWRGDSTYYADSVKGRFTISRDNAKNTVYLQMNSLKPEDTAVYYCNKRWTDKYDSWGQGTQVTVSS | high polyreactivity
20 | QVQLVESGGGLVQAGGSLRLSCAASGSTFAYNAMGWYRQAPGKERELVASITVSVGSTYYADSVKGRFTISRDNAKNTVYLQMNSLKPEDTAVYYCAARVTRRSSTYWVPRTGYYYWGQGTQVTVSS | low polyreactivity
21 | QVQLVESGGGLVQAGGSLRLSCAASGITFYRNAMGWYRQAPGKERELVAAISRRGGITRYADSVKGRFTISRDNAKNTVYLQMNSLKPEDTAVYYCAVAVNGVSRIKYYYWGQGTQVTVSS | high polyreactivity
22 | QVQLVESGGGLVQAGGSLRLSCAASGSTFFIYAMGRYRQAPGKERELVAAISGSGGTTYYADSVKGRFTISRDNAKNTVYLQMNSLKPEDTAVYYCAARTFSAFWRGGYDYWGQGTQVTVSS | low polyreactivity
23 | QVQLVESGGGLVQAGGSLRLSCAASGSIFLVNAMGWSRQAPGKERELVASITWRGGRTYYAASVKGRFTISRDNAKNTVYLQMNSLKPEDTAVYYCAARNYRTGERLRYDYWGQGTQVTVSS | low polyreactivity
24 | QVQLVESRGGLVQAGGSLRLSCAASGFIFRYYAMGWYRQEPGKDSELVAAISWSGGSTYYADSVKGRFTISRDNAKNTVYLQMNSLKPEDTAVYYCAADRYAILFYAEDYWGQGTQVTVSS | low polyreactivity
25 | QVQLVESGGGIVQAGGSLRLRCAASGYTFEDNDMGLYRQAPGKERELVAAISVNGGSTYYADSVKGRFTISRDNAKKTVYLQMNSLKPVDTAVFYCNVDTLIGSLYGYDYWGQGTQVTVSS | high polyreactivity
26 | QVQLVESGGGLVQAGGSLRLSCAASGSTFYANAMGWYRQAPGKERELVAAISRSGGRTYYADSVKGRFTISRDNAKNTVFLQMNSLKPEDTAVYYCAKAYHHSEFDYWGQGTQVTVSS | high polyreactivity
27 | QVQLVESGGGLVQAGGSLRLSCAASGSIFRQYAMGWYRQAPGTERELVAAINYSGGNTYYADSVKGRFTISRDNAKNTVYLQMNSLKPEDTAVYYCAADSVRHYWWAYYYWGQGTQVTVSS | low polyreactivity
28 | QVQLVESGGGLVQAGGSLRLSCPASGSTFMKYDKGWYRQAPGIVRELVAAISWDGGSTYYADSVKGRFTISRDNAKNTVYLQMNSLKPEDTAVYYCNADYDVYLTIWYYYCEFDYWGQGSQVTVSS | low polyreactivity
29 | QVQLVESGGGLVQAGGSLRLSCAASGRIFRGNAMGWYRQARGKERELVAGISVRGGRTYYADSVKGRFTISRDNAKNTVYLQMNSLKPEDTAVYYCAAVFWDDYGKYYYWGQGTQVTVSS | high polyreactivity
30 | QVQLVESGGGLVQAGGSLRLSFAASGRIFGTNTMGWYRQATGKERELVAGISSSGDSTYYADSVKGRFTISRDKAKNTVYLQINSLKPEDTAVYYCAARKGEFWLPQGGYNYWGQGTQVTVSS | low polyreactivity
31 | QVQLVESGGGLVQAGGSLRLSCAASGSTFGYNTMGWYRQAPGKEREWVAAITGTGRTNYADSVKGRFTISRDNAKNTVYLQMNSLKPEDTAVYYCAASLWQRAIGRYEYWGQGTQVTVSS | high polyreactivity
